Measurements: paper PMC10709064, “The leucine zipper domain of the transcriptional repressor Opi1 underlies a signal transduction mechanism regulating lipid synthesis” (The Journal of Biological Chemistry, 2023)
Blank lines part the entries; values can stand above or below the binder they belong to.

B5: MBP-N-Opi1^WT (maltose-binding protein fused to the N-terminal Opi1^1-190 polypeptide) (domain or fragment, S. cerevisiae, UniProt P21957 1-190, looked up)
chain: MSENQRLGLSEEEVEAAEVLGVLKQSCRQKSQPSEDVSQADKMPASESSTTPLNILDRVSNKIISNVVTFYDEINTNKRPLKSIGRLLDDDDDEHDDYDYNDDEFFTNKRQKLSRAIAKGKDNLKEYKLNMSIESKKRLVTCLHLLKLANKQLSDKISCLQDLVEKEQVHPLHKQDGNARTTTGAGEDET
notes: Opi1, S. cerevisiae, N terminus from aa1 to aa190 (N-Opi1), holds the leucine zipper (aa 139-166); pMAL-c expression vector; also called N-Opi1^1-190; source: for SEC further run on Superdex 200 Increase; not shown: MBP, N-terminal, kept

Tests used:
[1] = molecular target: B5; test: pull-down; as the pull-down with alternate tags, but binding reactions carried out at decreasing reactant concentrations (relative volume of the binding reaction varied); prey detected by Western blot; conditions: both partners purified
[2] = molecular target: T1, MBP-N-Opi1^3L (L146A, L153S, L160A) (S. cerevisiae, UniProt P21957 1-190, L146A | L153S | L160A); test: as above; conditions: both partners purified
T1 construct: Opi1, S. cerevisiae, N terminus from aa1 to aa190 (N-Opi1) with the 3L mutations L146A L153S L160A; pMAL-c expression vector; not shown: MBP, N-terminal, kept
T1 sequence (looked up): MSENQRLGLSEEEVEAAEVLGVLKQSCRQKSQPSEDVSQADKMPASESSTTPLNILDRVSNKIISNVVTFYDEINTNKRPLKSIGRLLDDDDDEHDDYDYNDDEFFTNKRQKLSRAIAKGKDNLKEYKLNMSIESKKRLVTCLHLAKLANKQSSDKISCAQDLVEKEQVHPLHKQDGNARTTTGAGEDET

[3] = molecular target: T2, MBP-N-Opi1^N150D (S. cerevisiae, UniProt P21957 1-190, N150D); test: as above; conditions: both partners purified
T2 construct: Opi1, S. cerevisiae, N terminus from aa1 to aa190 (N-Opi1) with N150D; pMAL-c expression vector; amplified from mutant OPI1 DNA template; source: for SEC further run on Superdex 200 Increase; not shown: MBP, N-terminal, kept
T2 sequence (looked up): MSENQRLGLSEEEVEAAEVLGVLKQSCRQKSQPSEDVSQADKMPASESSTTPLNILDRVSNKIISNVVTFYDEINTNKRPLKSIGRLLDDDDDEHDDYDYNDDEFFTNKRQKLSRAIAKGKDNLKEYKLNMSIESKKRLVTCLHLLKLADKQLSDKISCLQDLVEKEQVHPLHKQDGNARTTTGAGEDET

[4] = molecular target: T3, GST-N-Opi1^3L (L146A, L153S, L160A) (S. cerevisiae, UniProt P21957 1-190, L146A | L153S | L160A); test: as above; conditions: both partners purified
T3 construct: Opi1, S. cerevisiae, N terminus from aa1 to aa190 (N-Opi1) with the 3L mutations L146A L153S L160A; pGEX-4T-1 expression vector; not shown: GST, N-terminal, kept
T3 sequence (looked up): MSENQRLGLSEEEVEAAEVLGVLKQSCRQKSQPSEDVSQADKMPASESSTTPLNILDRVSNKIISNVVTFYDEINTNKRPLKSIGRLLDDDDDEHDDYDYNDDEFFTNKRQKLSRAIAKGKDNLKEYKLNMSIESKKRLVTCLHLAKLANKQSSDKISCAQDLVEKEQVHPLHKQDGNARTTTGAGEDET

[5] = molecular target: T4, GST-N-Opi1^N150D (S. cerevisiae, UniProt P21957 1-190, N150D); test: as above; conditions: both partners purified
T4 construct: Opi1, S. cerevisiae, N terminus from aa1 to aa190 (N-Opi1) with N150D; pGEX-4T-1 expression vector; not shown: GST, N-terminal, kept
T4 sequence (looked up): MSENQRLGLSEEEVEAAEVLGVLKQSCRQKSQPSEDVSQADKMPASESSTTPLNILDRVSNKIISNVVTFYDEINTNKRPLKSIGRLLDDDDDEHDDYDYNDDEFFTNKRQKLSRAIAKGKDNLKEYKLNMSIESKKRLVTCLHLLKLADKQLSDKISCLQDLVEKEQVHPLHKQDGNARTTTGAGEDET

[6] = molecular target: T5, GST-N-Opi1^WT (glutathione-S-transferase fused to Opi1 aa1-190) (S. cerevisiae, UniProt P21957 1-190); test: pull-down; around 0.5 ug bait on amylose resin or glutathione-Sepharose with 1.5 ug prey of the alternate tag in 100 ul binding buffer (20 mM Tris-HCl pH 8, 150 mM NaCl, 1 mM EDTA, 1 mM DTT, 20% glycerol, 0.05% Triton X-100) with 50 ug/ml BSA, 2 h at 4 C; bait eluted with its ligand, prey detected by Western blot against MBP or GST; conditions: both partners purified
T5 construct: Opi1, S. cerevisiae, N terminus from aa1 to aa190 (N-Opi1), holds the leucine zipper (aa 139-166); pGEX-4T-1 expression vector; also called N-Opi1^1-190; not shown: GST, N-terminal, kept
T5 sequence (looked up): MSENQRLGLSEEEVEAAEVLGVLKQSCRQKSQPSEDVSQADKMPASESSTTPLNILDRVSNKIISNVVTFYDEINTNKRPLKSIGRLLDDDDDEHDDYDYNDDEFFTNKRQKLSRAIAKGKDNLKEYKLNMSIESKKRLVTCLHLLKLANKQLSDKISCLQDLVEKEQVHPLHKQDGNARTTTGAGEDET

[7] = molecular target: the molecule itself; test: SEC; 0.5 mg of affinity-purified MBP fusion on Superdex 200 Increase 10/300 GL, 20 mM Tris-HCl pH 7.4, 150 mM NaCl, 0.5 ml/min; molecular weights estimated from calibration markers

binding result [1]: binds
binding result [2]: binds
binding result [3]: binds
B1: GST-C-Opi1^WT (glutathione-S-transferase fused to Opi1 aa291-404) (domain or fragment, S. cerevisiae, UniProt P21957 291-404, looked up)
chain: QQQQQQQQLLQQQLLQQQQQKRNKDGDDSASPSSSVTANGKVLILAKESLEMVRNVMGVVDSTLGKAEEWVKQKQEVKEMIRERFLQQQQQYRQQQQKDGNYVKPSQDNVDSKD
notes: Opi1, S. cerevisiae, C terminus from aa291 to aa404 (C-Opi1), holds the AID (aa 321-379); pGEX-4T-1 expression vector; also called C-Opi1^291-404; Opi1^291-404; not shown: GST, N-terminal, kept

binding result [1]: binds
B2: GST-C-Opi1^S339F (domain or fragment, S. cerevisiae, UniProt P21957 291-404, looked up)
chain: QQQQQQQQLLQQQLLQQQQQKRNKDGDDSASPSSSVTANGKVLILAKEFLEMVRNVMGVVDSTLGKAEEWVKQKQEVKEMIRERFLQQQQQYRQQQQKDGNYVKPSQDNVDSKD
notes: Opi1, S. cerevisiae, C terminus from aa291 to aa404 (C-Opi1) with S339F; pGEX-4T-1 expression vector; loss of function mutation known from earlier genetic work; not shown: GST, N-terminal, kept

binding result [4]: binds
binding result [5]: binds
binding result [6]: binds
B3: MBP-C-Opi1^WT (maltose-binding protein fused to Opi1 aa291-404) (domain or fragment, S. cerevisiae, UniProt P21957 291-404, looked up)
chain: QQQQQQQQLLQQQLLQQQQQKRNKDGDDSASPSSSVTANGKVLILAKESLEMVRNVMGVVDSTLGKAEEWVKQKQEVKEMIRERFLQQQQQYRQQQQKDGNYVKPSQDNVDSKD
notes: Opi1, S. cerevisiae, C terminus from aa291 to aa404 (C-Opi1), holds the AID (aa 321-379); pMAL-c expression vector; also called C-Opi1^291-404; Opi1^291-404; not shown: MBP, N-terminal, kept

binding result [1]: binds
B4: GST-C-Opi1^V343E (domain or fragment, S. cerevisiae, UniProt P21957 291-404, looked up)
chain: QQQQQQQQLLQQQLLQQQQQKRNKDGDDSASPSSSVTANGKVLILAKESLEMERNVMGVVDSTLGKAEEWVKQKQEVKEMIRERFLQQQQQYRQQQQKDGNYVKPSQDNVDSKD
notes: Opi1, S. cerevisiae, C terminus from aa291 to aa404 (C-Opi1) with V343E; pGEX-4T-1 expression vector; loss of function mutation known from earlier genetic work; not shown: GST, N-terminal, kept

Binder: B5
stoichiometry N [7]: ~2
